Test results as given in patent US11332546B2, “Protease inhibitory antibodies and methods of use thereof” (The Regents of The University of California, priority 2019, dated 2022).
Values belong to the molecule of their own block, whether it stands above or below them.

Assays:
[1] = system: HEK293F cells expressing APP571-696; assay: Aβ40 formation in HEK293F cells expressing APP571-696 (ELISA); format: cell-based; details: HEK293 cells expressing APP, IgG 72 h, dose-dependent
Method: For amyloid precursor protein (APP) degradation studies, APP571-696 was cloned to the C-terminal of maltose binding protein (MBP) for E. coli expression and purified using amylose resin (NEB). 5 μM purified MBP-APP was incubated with 1 μM BACE1-Fc in the absence or presence of 1 μM IgG in BACE1 assay buffer at 37° C. for 24 h. In addition, APP571-696 was cloned to a pcDNA plasmid carrying a SPE leader for secretion expression. Transfected HEK293F cells were cultured in Expi293 media for 72 hrs with the presence of 14-800 nM purified IgG. The supernatants were clarified by centrifugation and 0.45 μm filtration, and produced Aβ1-40 was quantified by ELISA (Abcam).

cathepsin B [2] = molecular target: T1, cathepsin B (Homo sapiens, UniProt P07858); assay: Binding kinetics by biolayer interferometry, Fabs on cathepsin B; details: Fab, read-out: Binding Affinity KD
T1 construct: human cathepsin B (residue 66-339); hexahistidine (C); made in house; host or cells: E. coli (periplasm)
Method: Binding kinetics of produced antibodies towards associated protease targets were analyzed by using biolayer interferometry (ForteBio). For Fabs, biotinylated proteases were immobilized on streptavidin biosensors, and Fab binding to the sensors in absence of protease was monitored as backgrounds. For IgGs, protein A sensors were used and protease bindings without IgG were checked as backgrounds. kon and koff were determined for KD calculations. […] Fab in vitro stability was tested by incubating 1 μM Fab with 1 μM of the respective protease in the assay buffer for 12 hours and the samples were analyzed by SDS-PAGE.

cathepsin K = molecular target: T2, cathepsin K (Homo sapiens, UniProt P43235); assay: FRET inhibition selectivity test, cathepsin K; format: biochemical; details: same Fab concentrations as for cathepsin B
T2 construct: hexahistidine (C); made in house; host or cells: E. coli (periplasm)
T2 sequence (P43235 115-329): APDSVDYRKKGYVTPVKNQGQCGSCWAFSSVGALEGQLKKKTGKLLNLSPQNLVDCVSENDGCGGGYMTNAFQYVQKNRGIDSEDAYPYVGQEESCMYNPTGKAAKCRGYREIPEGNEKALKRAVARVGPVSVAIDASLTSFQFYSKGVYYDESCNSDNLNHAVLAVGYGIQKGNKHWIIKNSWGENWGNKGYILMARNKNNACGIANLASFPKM
Method: (§3) For inhibition tests, 1 μM Fabs were 2-fold serially diluted into protease specific assay buffer and incubated with 1-10 nM proteases for 30 min at room temperature. […] Inhibition percentages at given concentrations were calculated by comparing the initial reaction rates in the presence or absence of inhibitor. IC50 was determined as the concentration that achieved 50% inhibition, and KI values were calculated using KI=IC50/(S/Km+1). Vmax and Km at various Fab concentrations were measured to determine the inhibition type. FRET inhibition assays were also used for selectivity tests of isolated Fabs with the relevant proteases.

cathepsin B [3] = molecular target: T1, cathepsin B; assay: FRET peptide inhibition assay, cathepsin B (M-2595); format: biochemical; details: Fab; for Ki: cathepsin B, FRET peptide, read-out: Inhibition Potency KI
Method: as §3

cdMMP-12 wt [4] = molecular target: T3, cdMMP-12 wt (Homo sapiens, UniProt P39900); assay: FRET peptide inhibition assay, cdMMP-12 wt; format: biochemical; details: toward cdMMP-12 wild type
T3 construct: hexahistidine (C); made in house; host or cells: E. coli BL21 (pET32b, cytoplasmic)
Method: (§1) FRET peptide inhibition assays In 96-well assay plates (Corning), 60/250/350/10/10/30 nM of (cd)MMP-1/-7/-9/-12 D4/-12 wt/-14 were preincubated with 1 nM-1 μM purified Fabs for 30 min at room temperature then 1 μM substrate M-2350 (Bachem) was added. Generated fluorescent signals (λEx=328 nm, λEm=393 nm) were monitored at 37° C. to measure the initial velocities. To calculate inhibition constants (KIs), data were fit with the equations for slow tight-binding inhibitors. The inhibition type of the Fabs was determined using the initial velocities of cdMMP-12 D4 as a function of substrate concentration (250-2000 nM) at various Fab concentrations (31-500 nM). The values of Vmax and Km were derived from linearization in accordance with the Lineweaver-Burk equation.

cdMMP-14 = cdMMP-14 (Homo sapiens, UniProt P50281); assay: Bio-layer interferometry on cdMMP-14; format: binding; set-up: human MMP-14 (residue 114-320); hexahistidine (C); made in house; host or cells: E. coli periplasm; details: read-out: KD toward cdMMP-14
cdMMP-9 [5] = assay: Bio-layer interferometry on cdMMP-9; format: binding; details: read-out: KD toward cdMMP-9
cdMMP-12 wt [6] = molecular target: T3, cdMMP-12 wt; assay: Fibronectin proteolysis inhibition, cdMMP-12 wt (western blot); format: biochemical; details: 6 μM Fab; 350 nM wt cdMMP-12, 200 nM fibronectin, 37° C.
Method: Inhibition tests with macromolecular substrates 10 μg/mL FITC-conjugated elastin (AnaSpec) was incubated with 7 nM cdMMP-12 D4/wt and 2-2000 nM purified Fab in 50 mM Tris-HCl, 150 mM NaCl, 5 mM CaCl2), 100 μM ZnCl2 pH 7.5. Generated fluorescent signals were measured at 12 h with λEx of 490 nm and λEm of 520 nm. […] The samples were separated on 5% non-reducing SDS-PAGE and analyzed by western blotting with anti-Fibronectin antibody (Abcam) and chemiluminescent substrate (Thermo Scientific). […] Assays without cdMMP-12s or Fabs were performed as controls.

cdMMP-12 mutant D4 [7] = molecular target: T4, cdMMP-12 mutant D4 (Homo sapiens, UniProt P39900, A167E/A173P/A252Q/H206S/I245T/K233R/M156E/N119Q/N126H/R135E/T215V/V161I/Y113D/Y132K); assay: Proteolytic stability of Fabs with cdMMP-12 D4; format: physicochemical; details: 2 μM Fab, 2 μM cdMMP-12 D4, 4 h, 37° C.
T4 construct: hexahistidine (C); made in house; host or cells: E. coli BL21, pET32b (cytoplasmic, soluble fraction)
Method: (§2) Proteolytic stability tests 2 μM purified Fabs were incubated with 2 μM cdMMP-12 wt/D4 in 50 mM HEPES, 150 mM NaCl pH 7.5 at 37° C. for 4 h. Samples were analyzed by using 12% non-reducing SDS-PAGE and stained with Coomassie blue. Densitometric interpretation was conducted using a ChemiDoc imager (Bio-Rad).

cdMMP-12 wt [8] = molecular target: T3, cdMMP-12 wt; assay: Proteolytic stability of Fabs with cdMMP-12 wt; format: physicochemical; details: 2 μM Fab, 2 μM cdMMP-12 wt, 4 h, 37° C.
Method: as §2

MMP-7 = molecular target: T5, MMP-7 (Homo sapiens, UniProt P09237); assay: FRET peptide inhibition assay, MMP-7; format: biochemical
T5 construct: purchased AnaSpec
T5 sequence (P09237 95-267): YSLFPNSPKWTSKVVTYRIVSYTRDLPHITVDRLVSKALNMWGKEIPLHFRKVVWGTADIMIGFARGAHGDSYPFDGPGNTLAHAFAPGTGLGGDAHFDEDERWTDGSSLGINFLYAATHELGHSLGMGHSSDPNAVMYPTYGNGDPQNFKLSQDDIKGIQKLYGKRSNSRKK
Method: as §1

cdMMP-12 wt [9] = molecular target: T3, cdMMP-12 wt; assay: Elastin-FITC hydrolysis inhibition, cdMMP-12 wt; format: biochemical; details: 7 nM wt cdMMP-12, 37° C., 12 h
Method: Inhibition tests with macromolecular substrates 10 μg/mL FITC-conjugated elastin (AnaSpec) was incubated with 7 nM cdMMP-12 D4/wt and 2-2000 nM purified Fab in 50 mM Tris-HCl, 150 mM NaCl, 5 mM CaCl2), 100 μM ZnCl2 pH 7.5. Generated fluorescent signals were measured at 12 h with λEx of 490 nm and λEm of 520 nm. For inhibition assays on fibronectin, 200 nM fibronectin (Corning) was incubated with 200-350 nM cdMMP-12 wt and 2 μM GM6001 or 0.1-6 μM Fabs in 50 mM HEPES, 150 mM NaCl pH 7.5 at 37° C. for 2-4 h. The samples were separated on 5% non-reducing SDS-PAGE and analyzed by western blotting with anti-Fibronectin antibody (Abcam) and chemiluminescent substrate (Thermo Scientific). For inhibition assays on modified TEM-1 carrying cleavable sequence ([…] (SEQ ID NO:134)) and a N-terminal HA tag, 250 nM modified TEM-1 was incubated with 700 nM cdMMP-12 wt and 10 μM Fabs in 50 mM HEPES, 150 mM NaCl pH 7.5 at 37° C. for 4 h. The samples were separated on 12% non-reducing SDS-PAGE, and the modified TEM-1 was visualized by western blotting using anti-HA antibody (Invitrogen) and chemiluminescent substrate. Assays without cdMMP-12s or Fabs were performed as controls.

cdMMP-12 mutant D4 [10] = molecular target: T4, cdMMP-12 mutant D4; assay: FRET peptide inhibition assay, cdMMP-12 D4; format: biochemical; details: cdMMP-12 D4, FRET peptide, 31-500 nM Fab
Method: as §1

MMP-1 = molecular target: T6, MMP-1 (Homo sapiens, UniProt P03956); assay: FRET peptide inhibition assay, MMP-1; format: biochemical
T6 construct: purchased AnaSpec
T6 sequence (P03956 100-469): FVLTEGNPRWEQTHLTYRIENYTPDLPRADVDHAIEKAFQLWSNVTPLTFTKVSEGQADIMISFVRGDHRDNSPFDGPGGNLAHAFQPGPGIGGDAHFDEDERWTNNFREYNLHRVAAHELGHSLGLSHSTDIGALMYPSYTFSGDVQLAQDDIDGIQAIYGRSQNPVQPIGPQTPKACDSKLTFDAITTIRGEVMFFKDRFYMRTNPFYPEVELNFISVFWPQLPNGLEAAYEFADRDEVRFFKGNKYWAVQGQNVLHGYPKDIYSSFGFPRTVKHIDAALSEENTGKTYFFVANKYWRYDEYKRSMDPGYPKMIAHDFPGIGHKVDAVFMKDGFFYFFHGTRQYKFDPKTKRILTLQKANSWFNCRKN
Method: as §1

cdMMP-9 [11] = assay: FRET peptide inhibition assay, cdMMP-9 (Example 2); format: biochemical; details: FRET peptide; read-out: K1 toward cdMMP-9
Method: as §1

T3 sequence (P39900 106-263): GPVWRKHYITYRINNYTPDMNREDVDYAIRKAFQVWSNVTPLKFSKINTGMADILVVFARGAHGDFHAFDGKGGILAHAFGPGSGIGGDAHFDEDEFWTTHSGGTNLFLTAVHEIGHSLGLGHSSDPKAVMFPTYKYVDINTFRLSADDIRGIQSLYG
cdMMP-9, sequence (P14780 with tags, fused parts or gaps DEL216-390 limits assumed): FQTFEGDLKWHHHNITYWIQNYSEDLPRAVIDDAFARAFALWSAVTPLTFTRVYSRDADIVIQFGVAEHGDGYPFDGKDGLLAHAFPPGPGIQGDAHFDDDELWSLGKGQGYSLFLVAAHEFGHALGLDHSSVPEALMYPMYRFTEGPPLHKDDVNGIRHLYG
T4 sequence (P39900 106-263 Y113D/N119Q/N126H/Y132K/R135E/M156E/V161I/A167E/A173P/H206S/T215V/K233R/I245T/A252Q): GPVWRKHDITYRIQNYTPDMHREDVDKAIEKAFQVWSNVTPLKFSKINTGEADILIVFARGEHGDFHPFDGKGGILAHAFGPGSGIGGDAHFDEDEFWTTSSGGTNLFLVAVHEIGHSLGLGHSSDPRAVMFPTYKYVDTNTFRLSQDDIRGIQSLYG

B1: IgG B2B2: anti-BACE1 IgG of clone B2B2 (antibody, V domains shown)
VH: EVQLVESGGGLVQPGGSLRLSCAASGFNISSYYMHWVRQAPGKGLEWVASIYSSYGYTYYADSVKGRFTISADTSKNTAYLQMNSLRAEDTAVYYCARYWGYYAWFGSHPWAYGAFDYWGQGTLVTVSSAS
VL: DIQMTQSPSSLSASVGDRVTITCRASQSVSSAVAWYQQKPGKAPKLLIYSASSLYSGVPSRFSGSRSGTDFTLTISSLQPEDFATYYCQQYGYYLITFGQGTKVEIKR
Reduction of amyloid beta (Aβ40) production [1]: 80%

B4: Fab LH11: anti-MMP-12 antibody clone; VL SEQ ID NO:124, VH SEQ ID NO:126, CDR-H3 SEQ ID NO:129 (antibody, V domains shown)
VH: EVQLVESGGGLVQPGGSLRLSCAASGFNLSYYSMHWVRQAPGKGLEWVAYIYPYYGSTYYADSVKGRFTISADTSKNTAYLQMNSLRAEDTAVYYCARFLLSIGKLFVGDGSILHVWLYGMDYWGQGTLVTVSSAS
VL: DIQMTQSPSSLSASVGDRVTITCRASQSVSSAVAWYQQKPGKAPKLLIYSASSLYSGVPSRFSGSRSGTDFTLTISSLQPEDFATYYCQQAYYGYLFTFGQGTKVEIKR
Inhibition FRET peptide (cdMMP-12 wt [4]): non- | Kd (cdMMP-14): ~700 nM | Kd (cdMMP-9 [5]): 740 nM | Fibronectin remaining after cdMMP-12 wt hydrolysis (cdMMP-12 wt [6]): significant amounts of fibronectin remained | Degradation of Fab by cdMMP-12 D4 (cdMMP-12 mutant D4 [7]): no significant degradation | Fab remained intact after exposure to cdMMP-12 wt (cdMMP-12 wt [8]): 67% | Inhibition of MMP-7 (selectivity) (MMP-7): did not inhibit and non- | Inhibition of elastin-FITC hydrolysis (cdMMP-12 wt [9]; 2 nM Fab): 0% | Inhibition of elastin-FITC hydrolysis (cdMMP-12 wt [9]; 16 nM Fab): 49% | Inhibition of elastin-FITC hydrolysis (cdMMP-12 wt [9]; 63 nM Fab): 62% | Inhibition of elastin-FITC hydrolysis (cdMMP-12 wt [9]; 500 nM Fab): 86% | Type of inhibition (Lineweaver-Burk) (cdMMP-12 mutant D4 [10]): substrate competitive manner | Inhibition of MMP-1 (selectivity) (MMP-1): did not inhibit and non- | Ki (cdMMP-9 [11]): 6200 nM

More lines, now with the values ahead:

Kd (cathepsin B [2]): 290 nM | Inhibition of cathepsin K (selectivity) (cathepsin K): but not cathepsin K | Inhibition of cathepsin B (in words) (cathepsin B [3]): inhibited cathepsin B completely | Ki (cathepsin B [3]): 200 nM
B2: Fab CBA1: anti-cathepsin B antibody clone; VL SEQ ID NO:110, VH SEQ ID NO:85, CDR-H3 SEQ ID NO:87 (antibody, V domains shown)
VH: EVQLVESGGGLVQPGGSLRLSCAASGFNLYSSYIHWVRQAPGKGLEWVASIYPYSSSTSYADSVKGRFTISADTSKNTAYLQMNSLRAEDTAVYYCARGGGSWSAMDYWGQGTLVTVSSAS
VL: DIQMTQSPSSLSASVGDRVTITCRASQSVSSAVAWYQQKPGKAPKLLIYSASSLYSGVPSRFSGSRSGTDFTLTISSLQPEDFATYYCQQHYSLITFGQGTKVEIKR

Kd (cathepsin B [2]): 190 nM | Inhibition of cathepsin K (selectivity) (cathepsin K): but not cathepsin K | Inhibition of cathepsin B (in words) (cathepsin B [3]): inhibited cathepsin B completely | Ki (cathepsin B [3]): 130 nM
B3: Fab CBA2: anti-cathepsin B antibody clone; VL SEQ ID NO:108, VH SEQ ID NO:81, CDR-H3 SEQ ID NO:84 (antibody, V domains shown)
VH: EVQLVESGGGLVQPGGSLRLSCAASGFNIYYYSIHWVRQAPGKGLEWVAYIYSYYGSTYYADSVKGRFTISADTSKNTAYLQMNSLRAEDTAVYYCARYGYPGGYHFWGWWSSPYAFDYWGQGTLVTVSSAS
VL: DIQMTQSPSSLSASVGDRVTITCRASQSVSSAVAWYQQKPGKAPKLLIYSASSLYSGVPSRFSGSRSGTDFTLTISSLQPEDFATYYCQQWSSSWGYLITFGQGTKVEIKR
